16 molecules from patent US20180155451A1 (published 2018) can be followed below.

B1: GpH7-B3 variant Y300_12R/GpL16-k0 (antibody, human IgG1, kappa)
heavy: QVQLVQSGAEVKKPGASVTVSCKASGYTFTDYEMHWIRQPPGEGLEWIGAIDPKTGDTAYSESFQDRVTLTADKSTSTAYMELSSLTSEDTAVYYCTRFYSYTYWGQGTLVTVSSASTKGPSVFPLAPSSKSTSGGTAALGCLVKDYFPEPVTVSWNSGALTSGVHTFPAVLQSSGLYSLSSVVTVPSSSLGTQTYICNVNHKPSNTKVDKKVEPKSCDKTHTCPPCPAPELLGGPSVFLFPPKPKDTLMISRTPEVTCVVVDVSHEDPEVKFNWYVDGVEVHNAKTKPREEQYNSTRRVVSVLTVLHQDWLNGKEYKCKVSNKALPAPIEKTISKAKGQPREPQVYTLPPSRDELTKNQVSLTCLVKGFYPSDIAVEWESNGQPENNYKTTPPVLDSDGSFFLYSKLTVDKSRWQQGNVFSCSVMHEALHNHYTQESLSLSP
light: DIVMTQSPLSLPVTPGEPASISCQASESLVHSNRNTYLHWYLQKPGQSPQLLIYKVSNRFSGVPDRFSGSGSGTDFTLKISRVEAEDVGVYYCSQNTHVPPTFGQGTKVEIERTVAAPSVFIFPPSDEQLKSGTASVVCLLNNFYPREAKVQWKVDNALQSGNSQESVTEQDSKDSTYSLSSTLTLSKADYEKHKVYACEVTHQGLSSPVTKSFNRGEC
notes: mutation in both H chains; also called Ho Ab Y300_12R; Y300R
B2: GpH7-A5/GpH7-B3 variant S298_11K/GpL16-k0 (antibody, human IgG1, kappa)
heavy 1: not shown
heavy 2: not shown
light: DIVMTQSPLSLPVTPGEPASISCQASESLVHSNRNTYLHWYLQKPGQSPQLLIYKVSNRFSGVPDRFSGSGSGTDFTLKISRVEAEDVGVYYCSQNTHVPPTFGQGTKVEIERTVAAPSVFIFPPSDEQLKSGTASVVCLLNNFYPREAKVQWKVDNALQSGNSQESVTEQDSKDSTYSLSSTLTLSKADYEKHKVYACEVTHQGLSSPVTKSFNRGEC
notes: mutation in one H chain only; also called He Ab S298_11K; S298K
B3: GpH7-A5/GpH7-B3 variant S239_14T/GpL16-k0 (antibody, human IgG1, kappa)
heavy 1: not shown
heavy 2: not shown
light: DIVMTQSPLSLPVTPGEPASISCQASESLVHSNRNTYLHWYLQKPGQSPQLLIYKVSNRFSGVPDRFSGSGSGTDFTLKISRVEAEDVGVYYCSQNTHVPPTFGQGTKVEIERTVAAPSVFIFPPSDEQLKSGTASVVCLLNNFYPREAKVQWKVDNALQSGNSQESVTEQDSKDSTYSLSSTLTLSKADYEKHKVYACEVTHQGLSSPVTKSFNRGEC
notes: mutation in one H chain only; also called He Ab S239_14T; S239T
B4: GpH7-A5/GpH7-B3 variant S267_02A/GpL16-k0 (antibody, human IgG1, kappa)
heavy 1: not shown
heavy 2: not shown
light: DIVMTQSPLSLPVTPGEPASISCQASESLVHSNRNTYLHWYLQKPGQSPQLLIYKVSNRFSGVPDRFSGSGSGTDFTLKISRVEAEDVGVYYCSQNTHVPPTFGQGTKVEIERTVAAPSVFIFPPSDEQLKSGTASVVCLLNNFYPREAKVQWKVDNALQSGNSQESVTEQDSKDSTYSLSSTLTLSKADYEKHKVYACEVTHQGLSSPVTKSFNRGEC
notes: mutation in one H chain only; also called He Ab S267_02A; S267A
B5: GpH7-A5/GpH7-B3 variant S267_03V/GpL16-k0 (antibody, human IgG1, kappa)
heavy 1: not shown
heavy 2: not shown
light: DIVMTQSPLSLPVTPGEPASISCQASESLVHSNRNTYLHWYLQKPGQSPQLLIYKVSNRFSGVPDRFSGSGSGTDFTLKISRVEAEDVGVYYCSQNTHVPPTFGQGTKVEIERTVAAPSVFIFPPSDEQLKSGTASVVCLLNNFYPREAKVQWKVDNALQSGNSQESVTEQDSKDSTYSLSSTLTLSKADYEKHKVYACEVTHQGLSSPVTKSFNRGEC
notes: mutation in one H chain only; also called He Ab S267_03V; S267V
B6: GpH7-A5/GpH7-B3 variant S267_09D/GpL16-k0 (antibody, human IgG1, kappa)
heavy 1: not shown
heavy 2: not shown
light: DIVMTQSPLSLPVTPGEPASISCQASESLVHSNRNTYLHWYLQKPGQSPQLLIYKVSNRFSGVPDRFSGSGSGTDFTLKISRVEAEDVGVYYCSQNTHVPPTFGQGTKVEIERTVAAPSVFIFPPSDEQLKSGTASVVCLLNNFYPREAKVQWKVDNALQSGNSQESVTEQDSKDSTYSLSSTLTLSKADYEKHKVYACEVTHQGLSSPVTKSFNRGEC
notes: mutation in one H chain only; also called He Ab S267_09D; S267D
B7: GpH7-A5/GpH7-B3 variant S267_16H/GpL16-k0 (antibody, human IgG1, kappa)
heavy 1: not shown
heavy 2: not shown
light: DIVMTQSPLSLPVTPGEPASISCQASESLVHSNRNTYLHWYLQKPGQSPQLLIYKVSNRFSGVPDRFSGSGSGTDFTLKISRVEAEDVGVYYCSQNTHVPPTFGQGTKVEIERTVAAPSVFIFPPSDEQLKSGTASVVCLLNNFYPREAKVQWKVDNALQSGNSQESVTEQDSKDSTYSLSSTLTLSKADYEKHKVYACEVTHQGLSSPVTKSFNRGEC
notes: mutation in one H chain only; also called He Ab S267_16H; S267H
B8: GpH7-A5/GpH7-B3 variant S267_01G/GpL16-k0 (antibody, human IgG1, kappa)
heavy 1: not shown
heavy 2: not shown
light: DIVMTQSPLSLPVTPGEPASISCQASESLVHSNRNTYLHWYLQKPGQSPQLLIYKVSNRFSGVPDRFSGSGSGTDFTLKISRVEAEDVGVYYCSQNTHVPPTFGQGTKVEIERTVAAPSVFIFPPSDEQLKSGTASVVCLLNNFYPREAKVQWKVDNALQSGNSQESVTEQDSKDSTYSLSSTLTLSKADYEKHKVYACEVTHQGLSSPVTKSFNRGEC
notes: mutation in one H chain only; also called He Ab S267_01G; S267G
B9: GpH7-A5/GpH7-B3 variant S239_18N/GpL16-k0 (antibody, human IgG1, kappa)
heavy 1: not shown
heavy 2: not shown
light: DIVMTQSPLSLPVTPGEPASISCQASESLVHSNRNTYLHWYLQKPGQSPQLLIYKVSNRFSGVPDRFSGSGSGTDFTLKISRVEAEDVGVYYCSQNTHVPPTFGQGTKVEIERTVAAPSVFIFPPSDEQLKSGTASVVCLLNNFYPREAKVQWKVDNALQSGNSQESVTEQDSKDSTYSLSSTLTLSKADYEKHKVYACEVTHQGLSSPVTKSFNRGEC
notes: mutation in one H chain only; also called He Ab S239_18N; S239N
B10: GpH7-A5/GpH7-B3 variant S298_01G/GpL16-k0 (antibody, human IgG1, kappa)
heavy 1: not shown
heavy 2: not shown
light: DIVMTQSPLSLPVTPGEPASISCQASESLVHSNRNTYLHWYLQKPGQSPQLLIYKVSNRFSGVPDRFSGSGSGTDFTLKISRVEAEDVGVYYCSQNTHVPPTFGQGTKVEIERTVAAPSVFIFPPSDEQLKSGTASVVCLLNNFYPREAKVQWKVDNALQSGNSQESVTEQDSKDSTYSLSSTLTLSKADYEKHKVYACEVTHQGLSSPVTKSFNRGEC
notes: mutation in one H chain only; also called He Ab S298_01G; S298G
B11: GpH7-A5/GpH7-B3 variant S298_02A/GpL16-k0 (antibody, human IgG1, kappa)
heavy 1: not shown
heavy 2: not shown
light: DIVMTQSPLSLPVTPGEPASISCQASESLVHSNRNTYLHWYLQKPGQSPQLLIYKVSNRFSGVPDRFSGSGSGTDFTLKISRVEAEDVGVYYCSQNTHVPPTFGQGTKVEIERTVAAPSVFIFPPSDEQLKSGTASVVCLLNNFYPREAKVQWKVDNALQSGNSQESVTEQDSKDSTYSLSSTLTLSKADYEKHKVYACEVTHQGLSSPVTKSFNRGEC
notes: mutation in one H chain only; also called He Ab S298_02A; S298A
B12: GpH7-A5/GpH7-B3 variant S239_19Q/GpL16-k0 (antibody, human IgG1, kappa)
heavy 1: not shown
heavy 2: not shown
light: DIVMTQSPLSLPVTPGEPASISCQASESLVHSNRNTYLHWYLQKPGQSPQLLIYKVSNRFSGVPDRFSGSGSGTDFTLKISRVEAEDVGVYYCSQNTHVPPTFGQGTKVEIERTVAAPSVFIFPPSDEQLKSGTASVVCLLNNFYPREAKVQWKVDNALQSGNSQESVTEQDSKDSTYSLSSTLTLSKADYEKHKVYACEVTHQGLSSPVTKSFNRGEC
notes: mutation in one H chain only; also called He Ab S239_19Q; S239Q
B13: GpH7-A5/GpH7-B3 variant S239_09D/GpL16-k0 (antibody, human IgG1, kappa)
heavy 1: not shown
heavy 2: not shown
light: DIVMTQSPLSLPVTPGEPASISCQASESLVHSNRNTYLHWYLQKPGQSPQLLIYKVSNRFSGVPDRFSGSGSGTDFTLKISRVEAEDVGVYYCSQNTHVPPTFGQGTKVEIERTVAAPSVFIFPPSDEQLKSGTASVVCLLNNFYPREAKVQWKVDNALQSGNSQESVTEQDSKDSTYSLSSTLTLSKADYEKHKVYACEVTHQGLSSPVTKSFNRGEC
notes: mutation in one H chain only; also called He Ab S239_09D; S239D
B14: GpH7-A5/GpH7-B3 variant S298_04F/GpL16-k0 (antibody, human IgG1, kappa)
heavy 1: not shown
heavy 2: not shown
light: DIVMTQSPLSLPVTPGEPASISCQASESLVHSNRNTYLHWYLQKPGQSPQLLIYKVSNRFSGVPDRFSGSGSGTDFTLKISRVEAEDVGVYYCSQNTHVPPTFGQGTKVEIERTVAAPSVFIFPPSDEQLKSGTASVVCLLNNFYPREAKVQWKVDNALQSGNSQESVTEQDSKDSTYSLSSTLTLSKADYEKHKVYACEVTHQGLSSPVTKSFNRGEC
notes: mutation in one H chain only; also called He Ab S298_04F; S298F
B15: GpH7-A5/GpH7-B3 variant S298_03V/GpL16-k0 (antibody, human IgG1, kappa)
heavy 1: not shown
heavy 2: not shown
light: DIVMTQSPLSLPVTPGEPASISCQASESLVHSNRNTYLHWYLQKPGQSPQLLIYKVSNRFSGVPDRFSGSGSGTDFTLKISRVEAEDVGVYYCSQNTHVPPTFGQGTKVEIERTVAAPSVFIFPPSDEQLKSGTASVVCLLNNFYPREAKVQWKVDNALQSGNSQESVTEQDSKDSTYSLSSTLTLSKADYEKHKVYACEVTHQGLSSPVTKSFNRGEC
notes: mutation in one H chain only; also called He Ab S298_03V; S298V
B16: GpH7-A5/GpH7-B3 variant S267_08L/GpL16-k0 (antibody, human IgG1, kappa)
heavy 1: not shown
heavy 2: not shown
light: DIVMTQSPLSLPVTPGEPASISCQASESLVHSNRNTYLHWYLQKPGQSPQLLIYKVSNRFSGVPDRFSGSGSGTDFTLKISRVEAEDVGVYYCSQNTHVPPTFGQGTKVEIERTVAAPSVFIFPPSDEQLKSGTASVVCLLNNFYPREAKVQWKVDNALQSGNSQESVTEQDSKDSTYSLSSTLTLSKADYEKHKVYACEVTHQGLSSPVTKSFNRGEC
notes: mutation in one H chain only; also called He Ab S267_08L; S267L

T1 sequence (P12314 16-292): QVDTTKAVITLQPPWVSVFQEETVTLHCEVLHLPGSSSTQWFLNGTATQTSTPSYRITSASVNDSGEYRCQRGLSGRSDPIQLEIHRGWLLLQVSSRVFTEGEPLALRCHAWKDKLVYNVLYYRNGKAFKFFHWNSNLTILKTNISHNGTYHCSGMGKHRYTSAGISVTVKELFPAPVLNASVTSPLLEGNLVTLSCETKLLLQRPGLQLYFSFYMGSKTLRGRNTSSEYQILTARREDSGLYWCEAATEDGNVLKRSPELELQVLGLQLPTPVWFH

One assay has as its target T1, FcγRIa extracellular domain with C-terminal His tag (human, UniProt P12314 16-292).
T1 construct: extracellular domain; also called FcgRI; CD64; not shown: His tag at the C terminus
The assay can be described thus: SPR Biacore, relative FcγRIa binding vs GpH7-B3/GpL16-k0. Background: Surface plasmon resonance follows binding to a sensor surface in real time, without labels.
B1: the Ho/Con_1a is 96.5 % of HoCon Ab (=100).

For the next assay, the target named is T1, FcγRIa extracellular domain with …. The assay can be described thus: SPR Biacore, relative FcγRIa binding vs GpH7-A5/GpH7-B3/GpL16-k0.
Take B2: the He/Con_1a was 109 % of HeCon Ab (=100).
Consider B3, for which the He/Con_1a is 101 % of HeCon Ab (=100).
On the same count and under the same terms, the figure for B4 is 109 % of HeCon Ab (=100).
The same measure, in the same setting: the figure for B5 is 106 % of HeCon Ab (=100).
Take B6: the He/Con_1a is 110 % of HeCon Ab (=100).
As to B7, the He/Con_1a is 100 % of HeCon Ab (=100).
On to B8, for which the He/Con_1a is 103 % of HeCon Ab (=100).
Same read-out and setting: for B9 the value was 101 % of HeCon Ab (=100); for B10, 104 % of HeCon Ab (=100); for B11, 107 % of HeCon Ab (=100).
For the molecule B12, the He/Con_1a was 101 % of HeCon Ab (=100).
Same read-out and setting: the figure for B13 is 101 % of HeCon Ab (=100).
On the same count and under the same terms, the figure for B14 is 109 % of HeCon Ab (=100).
In the case of B15, the He/Con_1a is 110 % of HeCon Ab (=100).
Still for that read-out and setting: the figure for B16 is 101 % of HeCon Ab (=100).
